For the experiment, the target named is T1, FSTL3-FC (biotin) (UniProt O95633, biotin).
T1 construct: FSTL3 gene fused with a human Fc fragment in pCDNA3.4; also called biotinylated FSTL3-FC; source: 293F cells, transfected, purified (Protein A), biotinylated, ultrafiltration; made by SGE BIOTECH
In words: ELISA; sandwich ELISA with biotinylated FSTL3-FC, aFSTL3 and Activin A-mFC; in vitro. Particulars: both partners purified. For orientation: In an ELISA, binding on a coated surface is turned into a signal by an enzyme label.

T1 sequence (O95633 27-263): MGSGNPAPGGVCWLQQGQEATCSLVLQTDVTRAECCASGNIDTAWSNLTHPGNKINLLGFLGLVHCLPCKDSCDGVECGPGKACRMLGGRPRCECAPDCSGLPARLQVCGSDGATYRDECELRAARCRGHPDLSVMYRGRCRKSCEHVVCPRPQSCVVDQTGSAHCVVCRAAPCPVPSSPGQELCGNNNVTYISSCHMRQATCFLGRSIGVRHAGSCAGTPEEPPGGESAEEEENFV

B1: FSTL3-targeting antibodies (aFSTL3) (antibody, V domains shown)
VH: EVQLQQSAAELARPGASVKMSCKASGYSFTTYTMHWVKQRPGQGLEWIGYIHPSSGYTDHIQKFKDKTILTADKSSSTAYMQLNSLTSEDSAVYYCARLDYGYWGQGTTLTVSS
VL: DILMTQTPLSLPVSLGDQASISCRSSQSIVHSNGNTYLEWYLQKPGQSPKLLIYKVSNRFSGVPDRFTGSGSGTDFTLKISRVEAADLGVYYCFQSSHIPPTFGGGTKLEIK
notes: cloned into the PTT5-human IgG1 CH vector; cloned into the PTT5-human kappa CL vector; Human IgG1 CH, human kappa CL; source: 293F cells, transfected, purified (Protein A); made by SGE BIOTECH
As for B1, the binding result is given as “binds”.

Values taken from publication PMC12501291, “Cancer-associated fibroblasts expressing FSTL3 promote vasculogenic mimicry formation and drive colon cancer malignancy” (Cell Death & Disease, 2025).
